Data as given in US20110105394A1 (Novo Nordisk, published 2011).
*1 amine or outer side, *2 acyl side, *3 side chain or, on linkers, in order; H or OH if unused. Bridges are numbered along the chain shown (N, C = ends). Where no end group is shown, it is not given here. The star is where a group is joined. X1 = (S)‑4‑Carboxy‑4‑(17-carboxyheptadecanoylamino)butyryl, O=C(O)CCCCCCCCCCCCCCCCC(=O)N[C@@H](CCC(=O)*)C(=O)O; C20 diacid = O=C(O)CCCCCCCCCCCCCCCCCCC(=O)*; γGlu = O=C(O)[C@H](CCC(=O)[*:2])N[*:1]

T1: Amylin 3(a) receptor (human calcitonin receptor (CTa) with RAMP-3) (human, UniProt P30988 25-474; O60896 24-148, limits assumed)
T1 sequence (looked up) 1: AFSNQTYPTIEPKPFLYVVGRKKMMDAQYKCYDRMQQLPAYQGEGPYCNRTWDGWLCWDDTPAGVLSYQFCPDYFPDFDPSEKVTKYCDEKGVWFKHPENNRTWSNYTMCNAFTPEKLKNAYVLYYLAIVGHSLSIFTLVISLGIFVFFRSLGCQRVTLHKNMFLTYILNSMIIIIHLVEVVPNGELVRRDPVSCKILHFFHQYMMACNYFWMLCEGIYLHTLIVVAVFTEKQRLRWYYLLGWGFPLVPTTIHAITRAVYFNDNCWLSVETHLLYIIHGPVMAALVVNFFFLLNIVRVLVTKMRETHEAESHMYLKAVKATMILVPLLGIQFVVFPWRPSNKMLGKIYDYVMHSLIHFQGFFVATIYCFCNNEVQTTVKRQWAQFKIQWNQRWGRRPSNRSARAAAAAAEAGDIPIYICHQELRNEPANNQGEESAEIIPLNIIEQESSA
T1 sequence (looked up) 2: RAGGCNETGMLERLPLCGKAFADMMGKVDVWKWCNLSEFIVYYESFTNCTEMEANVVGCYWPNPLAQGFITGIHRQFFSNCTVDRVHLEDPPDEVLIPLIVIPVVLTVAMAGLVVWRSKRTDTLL

B1: N-alpha-[(S)-4-Carboxy-4-(19-carboxynonadecanoylamino)butyryl]-[Ser17]-pramlintide (2-37) (peptide)
peptide: {C20 diacid-γGlu}-CNTATCATQRLANFLSHSSNNFGPILPPTNVGSNTY-NH2
modifications: disulfide 1-6
SMILES: CC[C@H](C)[C@H](NC(=O)[C@@H]1CCCN1C(=O)CNC(=O)[C@H](Cc1ccccc1)NC(=O)[C@H](CC(N)=O)NC(=O)[C@H](CC(N)=O)NC(=O)[C@H](CO)NC(=O)[C@H](CO)NC(=O)[C@H](Cc1c[nH]cn1)NC(=O)[C@H](CO)NC(=O)[C@H](CC(C)C)NC(=O)[C@H](Cc1ccccc1)NC(=O)[C@H](CC(N)=O)NC(=O)[C@H](C)NC(=O)[C@H](CC(C)C)NC(=O)[C@H](CCCNC(=N)N)NC(=O)[C@H](CCC(N)=O)NC(=O)[C@@H](NC(=O)[C@H](C)NC(=O)[C@@H]1CSSC[C@H](NC(=O)CC[C@H](NC(=O)CCCCCCCCCCCCCCCCCCC(=O)O)C(=O)O)C(=O)N[C@@H](CC(N)=O)C(=O)N[C@@H]([C@@H](C)O)C(=O)N[C@@H](C)C(=O)N[C@@H]([C@@H](C)O)C(=O)N1)[C@@H](C)O)C(=O)N[C@@H](CC(C)C)C(=O)N1CCC[C@H]1C(=O)N1CCC[C@H]1C(=O)N[C@H](C(=O)N[C@@H](CC(N)=O)C(=O)N[C@H](C(=O)NCC(=O)N[C@@H](CO)C(=O)N[C@@H](CC(N)=O)C(=O)N[C@H](C(=O)N[C@@H](Cc1ccc(O)cc1)C(N)=O)[C@@H](C)O)C(C)C)[C@@H](C)O
B2: N-alpha-[(S)-4-Carboxy-4-(19-carboxynonadecanoylamino)butyryl]-[Gly17]-pramlintide (2-37) (peptide)
peptide: {C20 diacid-γGlu}-CNTATCATQRLANFLGHSSNNFGPILPPTNVGSNTY-NH2
modifications: disulfide 1-6
SMILES: CC[C@H](C)[C@H](NC(=O)[C@@H]1CCCN1C(=O)CNC(=O)[C@H](Cc1ccccc1)NC(=O)[C@H](CC(N)=O)NC(=O)[C@H](CC(N)=O)NC(=O)[C@H](CO)NC(=O)[C@H](CO)NC(=O)[C@H](Cc1c[nH]cn1)NC(=O)CNC(=O)[C@H](CC(C)C)NC(=O)[C@H](Cc1ccccc1)NC(=O)[C@H](CC(N)=O)NC(=O)[C@H](C)NC(=O)[C@H](CC(C)C)NC(=O)[C@H](CCCNC(=N)N)NC(=O)[C@H](CCC(N)=O)NC(=O)[C@@H](NC(=O)[C@H](C)NC(=O)[C@@H]1CSSC[C@H](NC(=O)CC[C@H](NC(=O)CCCCCCCCCCCCCCCCCCC(=O)O)C(=O)O)C(=O)N[C@@H](CC(N)=O)C(=O)N[C@@H]([C@@H](C)O)C(=O)N[C@@H](C)C(=O)N[C@@H]([C@@H](C)O)C(=O)N1)[C@@H](C)O)C(=O)N[C@@H](CC(C)C)C(=O)N1CCC[C@H]1C(=O)N1CCC[C@H]1C(=O)N[C@H](C(=O)N[C@@H](CC(N)=O)C(=O)N[C@H](C(=O)NCC(=O)N[C@@H](CO)C(=O)N[C@@H](CC(N)=O)C(=O)N[C@H](C(=O)N[C@@H](Cc1ccc(O)cc1)C(N)=O)[C@@H](C)O)C(C)C)[C@@H](C)O
B3: N-alpha-[(S)-4-Carboxy-4-(19-carboxynonadecanoylamino)butyryl]-[Ala17]-pramlintide (2-37) (peptide)
peptide: CNTATCATQRLANFLAHSSNNFGPILPPTNVGSNTY-NH2
modifications: disulfide 1-6; not fully specified (N-terminus); printed as N-alpha-[(S)-4-Carboxy-4-(19-carboxynonadecanoylamino)butyryl]-[Ala17]-pramlintide (2-37)

The binders below were run against T1, Amylin 3(a) receptor (human calcitonin …) (assay: cell-based or functional assay).
B1 was tested, and the “Potency Luciferase” value was 100 pmol/L. For B2, the “Potency Luciferase” value was 400 pmol/L. B3 was tested, and the “Potency Luciferase” value was 100 pmol/L. X1-CNTATCATQRLANFLHHSSNNFGPILPPTNVGSNTY-NH2 (disulfide 1-6) [N-alpha-[(S)-4-Carboxy-4-(17-carboxyheptadecanoylamino)butyryl]-[His17]-pramlintide (2-37)] was tested, and the “Potency Luciferase” value was 80 pmol/L.
